Target: mouse glycophorin-A (GYPA) on the mouse erythrocyte surface (mouse) (UniProt P14220)
Test: equilibrium binding to mouse erythrocytes, flow cytometry, one-site binding fit

ERY1-OVA (ovalbumin chemically conjugated with ERY1 peptide through SMCC), sequence (P01012 2-386, form in doubt): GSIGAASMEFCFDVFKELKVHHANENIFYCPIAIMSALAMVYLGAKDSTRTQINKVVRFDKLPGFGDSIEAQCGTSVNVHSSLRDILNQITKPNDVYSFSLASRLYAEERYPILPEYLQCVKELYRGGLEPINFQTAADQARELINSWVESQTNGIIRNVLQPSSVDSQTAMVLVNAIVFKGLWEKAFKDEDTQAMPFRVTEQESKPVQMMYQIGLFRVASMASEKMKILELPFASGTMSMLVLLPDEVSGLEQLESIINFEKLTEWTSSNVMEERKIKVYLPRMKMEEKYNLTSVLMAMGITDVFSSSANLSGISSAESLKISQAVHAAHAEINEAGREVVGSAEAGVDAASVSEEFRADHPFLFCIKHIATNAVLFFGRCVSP

## ERY1-OVA (ovalbumin chemically conjugated with ERY1 peptide through SMCC) (from UniProt P01012 2-386)
  Kd: 6.2 nM

From patent publication EP2814500B1
